This note sets out measurements from the nanobody polyreactivity screen of Harvey et al. (2022).

This data set is described as follows: yeast display, Sf9 membrane polyspecificity reagent, FACS + sequencing; frameworks hold sequencing errors. In outline:
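Polyreactivity labels are assigned by the sorting gate from which each nanobody was recovered. The gates were low and high (top ~1%), set on anti-HA fluorescence for expression and streptavidin fluorescence for reagent binding. Before sorting, galactose-induced (36–48 hours) yeast display cells were stained for 1 hour at 4 °C with 10% biotinylated, detergent-solubilized Sf9 membrane reagent.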
As for “QVQLVESGGGLVQAGGSLRLSCAASGRTFAEYAMGWYRQAPGKERELVAAISKRGGSTYYADSVKGRFTISRDNAKNTVYLQMNSLKPEDTAVYYCNKVNRVPSYGHEVGYWGQGTQVTVSS”, the “polyreactivity (PSR sort gate)” value is on record as “high polyreactivity”.

With “QVQLVESGGGLVQAGGSLRLSCAASGRTFAFNAMGWCRQAPGKDRELVAAISQGADSTYYADSVKGRFTISRDNAKNPVDLQMNSLKPEDTAVYYCAAEAQYNFYSYDYWGQGTQVTVSS”, the “polyreactivity (PSR sort gate)” value was “low polyreactivity”.

For “QVQLVESGGGLVQAGGSLRLSCAASGRTFAFNAMGWYRPAPGKERELVAAIRWSGGCTYYADSVKGRFTISRDSPKNTVSLQMNTLKPEDTAVYYCAAYEKRLGYDYWGQGTQVTVSS”, the “polyreactivity (PSR sort gate)” value is on record as “high polyreactivity”.

Regarding “QVQLVESGGGLVQAGGSLRLSCAASGRTFAFYAMGWYRQAPGKERELVASIRGGGGTNYADSVKGRFTISRDNAKNTVYLQMNSLKTEDTAVYYCAARGYGYRGYYYWGQGTQVTVSS”, the “polyreactivity (PSR sort gate)” value was “high polyreactivity”.

As to “QVQLVESGGGLVQAGGSLRLSCAASGRTFAFYAMGWYRQAPGKERELVASISSSGDRTYYADSVKGRFTISRDNAKNTVYLQMNSLKPEDTAVYYCAARWRYTYYYWGQGTQVTVSS”, the “polyreactivity (PSR sort gate)” value is listed as “high polyreactivity”.

Regarding “QVQLVESGGGLVQAGGSLRLSCAASGRTFAGNAMGWYRQATGKERELVASITWTGGRTYYADSVKGRFTISRDNAKNTVYLQMNSLKPEDTAVYYCAARPDYYYFRGDYWGQGTQVTVSS”, the “polyreactivity (PSR sort gate)” value is “high polyreactivity”.

With “QVQLVESGGGLVQAGGSLRLSCAASGRTFAINVMGWYRQAPGKEMELVASIRGRGGRTNYADSVKGRFTISRDNAKNSVYLQMNSLKPEDTAVYYCAAAYTGGGQYEYEYWGQGTQVTVSS”, the “polyreactivity (PSR sort gate)” value is “high polyreactivity”.

Turning to “QVQLVESGGGLVQAGGSLRLSCAASGRTFAIYAMGWYRQAPGKERELVATIRGGSTYYADSVKGRFTISRDNAKNTVYLQMNSLKPEDTAVYYCAAGWYRYYGGFGYWGQGTQVTVSS”, the “polyreactivity (PSR sort gate)” value is “high polyreactivity”.

Regarding “QVQLVESGGGLVQAGGSLRLSCAASGRTFALNTMGWYRQAPGKERELVAAITIGGSTYYADSVKGRFTISRDNAKNTVYLQMNSLKPEDTAVYYCAARTRGAWAYWGQGTQVTVSS”, the “polyreactivity (PSR sort gate)” value is listed as “high polyreactivity”.

Regarding “QVQLVESGGGLVQAGGSLRLSCAASGRTFALYAMGWYRQAPGKERELVASISWRGGSTYYADSVKGRFTISRDNAKNTVYLQMNSLKPEDTAVYYCAADTWSYGPLNYRLEYWGQGTQVTVSS”, the “polyreactivity (PSR sort gate)” value was “low polyreactivity”.

As to “QVQLVESGGGLVQAGGSLRLSCAASGRTFALYTMGWYRQAPGKERELVAAINWSGTSTYYADSVKGRFTISRDTAKNTVYLQMNSLKPEDTAVYYCNARGQYNRLMDYWGQGTKVTVSS”, the “polyreactivity (PSR sort gate)” value is listed as “low polyreactivity”.

For the sequence “QVQLVESGGGLVQAGGSLRLSCAASGRTFANYAMGWYRQAPGKERELVAAISFSTVSTYYADSVKGRFTISRDNAKNTVYLQMNSLKPEDTAVYYCAARRLGYYRKVKELDYWGQGTQVTVSS”, the “polyreactivity (PSR sort gate)” value was “high polyreactivity”.

Consider “QVQLVESGGGLVQAGGSLRLSCAASGRTFANYVMGWYRQAPGKERELVAGMTGSGGSTYYADSVKGRFTISRDNAKNTVYLQMNSLKPEDTAVYYCAKRYVYVASMGYWGQGTQVTVSS”, for which the “polyreactivity (PSR sort gate)” value was “high polyreactivity”.

“QVQLVESGGGLVQAGGSLRLSCAASGRTFAPYAMGWSRQAPGKEREFVAGITWSSSSTYADSVKGRFTISRDNAKNTVYLQMNSLKPEDTAVYYCAARHAKGGNRHYYWGQGTQVTVSS”: the “polyreactivity (PSR sort gate)” value was “high polyreactivity”.

In the case of “QVQLVESGGGLVQAGGSLRLSCAASGRTFAPYAMGWYRQAPGKERELVAAIRWTGTSTYYADSVKGRFTISRDNAKNTVYLQMNSLKPEDTAVYYCNADLYNREGWGQGTQVTVSS”, the “polyreactivity (PSR sort gate)” value is given as “high polyreactivity”.

With “QVQLVESGGGLVQAGGSLRLSCAASGRTFARNAMGWYRQAPGKDRELVAAISSSGGSTYYADSVKGRFTISRDNAKNTVYLQMNSLKPEDTAVYYCAARSRHAYGYWGQGTQVTVSS”, the “polyreactivity (PSR sort gate)” value is reported as “high polyreactivity”.

On to “QVQLVESGGGLVQAGGSLRLSCAASGRTFARYAMGWYRQAPGKERDLVADITSGGSTNYADSVKGRFTISRDNAKNTVYLQMNSLEPEDTAVYYCAAYVVWSWFEEYEYWGQGTQVTVSS”, for which the “polyreactivity (PSR sort gate)” value was “high polyreactivity”.

Turning to “QVQLVESGGGLVQAGGSLRLSCAASGRTFARYTMGWYRQAPGKERELVASITRGGSTYYADSVKGRFTISRDNAKNTVYVQMNSLKPEDTAVYYCAARFPQHNYWAMDYWGQGTQVTVSS”, the “polyreactivity (PSR sort gate)” value is “high polyreactivity”.

“QVQLVESGGGLVQAGGSLRLSCAASGRTFARYVMGWYRQAPGKERELVASISNSGGSTYYADSVKGRFTISRDNAKNTVYLQMNSLKPEDTAVYYCARRYYSYTTYRYDYWGQGTQVTVSS”: the “polyreactivity (PSR sort gate)” value is given as “high polyreactivity”.

Regarding “QVQLVESGGGLVQAGGSLRLSCAASGRTFASNALGWYRQAPGKERELVADISSSGGTTYYADSVKGRFTISRDNAKNTVYLQMNSLKPEDTAVYYCAAVSSQDDPVKAWDYDYWGQGTQVTVSS”, the “polyreactivity (PSR sort gate)” value was “low polyreactivity”.

For the sequence “QVQLVESGGGLVQAGGSLRLSCAASGRTFASNDMGWYRQAPGKERELVADINNGARTYYADSVKGRFTISRDNAKNTVYLQMNSLKPEDTAVYYCNARPWYWWEGRYDYWGQGTQVTVSS”, the “polyreactivity (PSR sort gate)” value was “high polyreactivity”.

On to “QVQLVESGGGLVQAGGSLRLSCAASGRTFASYAMGWYRPAPGKEREFVAVISVNGGNTYYADSVKGRFTISRDNAKNTVYLQMNSLKPEDTAVYYCARFDGWYQGYYPLYEFDYWGQGTQVTVSS”, for which the “polyreactivity (PSR sort gate)” value is “high polyreactivity”.

In the case of “QVQLVESGGGLVQAGGSLRLSCAASGRTFASYAMGWYRQAPGKERELVATIRRSGTSTYYADSVKGRFTISRDNAKNTVYLQMNSLKPEDTAVYYCAALRSLLYRTYGYWGQGTQVTVSS”, the “polyreactivity (PSR sort gate)” value is on record as “low polyreactivity”.

Turning to “QVQLVESGGGLVQAGGSLRLSCAASGRTFATNVMGWYRQAPGKERELVAAISRSGGRTYYADSVKGRFTISRDNAKNTVYLQMNSLKPEDTAVYYCAARRRRFYYQYYRYDYWGQGTQVTVSS”, the “polyreactivity (PSR sort gate)” value is “high polyreactivity”.

Turning to “QVQLVESGGGLVQAGGSLRLSCAASGRTFAVYAMGWYRQAPGKERELVAAITRSGGSTYYADSVKGRFTISRDNAKNTVYLQMNSLKPEDTAVYYCAAGGQARHDYWGQGTQVTVSS”, the “polyreactivity (PSR sort gate)” value was “low polyreactivity”.

Consider “QVQLVESGGGLVQAGGSLRLSCAASGRTFAWYAMGWYRQAPGKERELVAVIRRGSGDTYYADSVKGRFTISRDNAKNTVYLQMNSLKPEDTAVYYCAAKSVAYKTRAGGVRYESWGQGTQVTVSS”, for which the “polyreactivity (PSR sort gate)” value is given as “high polyreactivity”.

Take “QVQLVESGGGLVQAGGSLRLSCAASGRTFAYNAMGWYRQAPGKERELVAAISGNGGRTYYADSVKGRFTISRDNAKNTVYLQMNSLKPEDTAVYYCNAAVGYYSYSYYTKVGVDYWGQGTQVTVSS”: the “polyreactivity (PSR sort gate)” value was “high polyreactivity”.

On to “QVQLVESGGGLVQAGGSLRLSCAASGRTFAYNAMGWYRQAPGKERELVADITSGGSTYYADSVKGRFTISRDNAKNTVYLQMNRLKPEDTAVYYCAAYPQFWYWDYNYWGQGTQVTVSS”, for which the “polyreactivity (PSR sort gate)” value was “high polyreactivity”.

“QVQLVESGGGLVQAGGSLRLSCAASGRTFAYNDRGWYRQATGKERELVAAISWSDGTTYYADSVKGRFTISRDNAKNTVYLQMYSLKPEDTAVYDCAAESYPAVVASYVSEFDYWGQGTQVPVSS”: the “polyreactivity (PSR sort gate)” value is given as “low polyreactivity”.

As for “QVQLVESGGGLVQAGGSLRLSCAASGRTFAYNTMGWYRQAPGKERELVAAISTSGVRTFYADSVKGRFTISRDNAKNTVYLQMNSLKPEDTAVYSYDWGQGTQVTVSS”, the “polyreactivity (PSR sort gate)” value is on record as “low polyreactivity”.

As to “QVQLVESGGGLVQAGGSLRLSCAASGRTFAYYAMGWYKQAPGKERELVAAISWSGGSTYYADSVKGRFTISRDNAKNTVYLQMNSLKPEDTAVYYCAARRYGVPPTYDYWGQGTQVTVSW”, the “polyreactivity (PSR sort gate)” value is listed as “high polyreactivity”.

For the sequence “QVQLVESGGGLVQAGGSLRLSCAASGRTFAYYAMGWYRQAPGKERELVAAIDSSGGSTYYADSVKARFTISRDNAKNTVYLQMNSLKPEDTADYYCAASYPYDRYDQGGYGYWGQGTQVTVSS”, the “polyreactivity (PSR sort gate)” value is “low polyreactivity”.

As for “QVQLVESGGGLVQAGGSLRLSCAASGRTFAYYVMGWYRPAPGKERQLVAAINRSDGSTSYADSVKGRFTISRDNAKNTVYLQMNSLKPEDTAVYYCAKSKPVGPYYYWGQGTQVTVSS”, the “polyreactivity (PSR sort gate)” value is on record as “high polyreactivity”.

For the sequence “QVQLVESGGGLVQAGGSLRLSCAASGRTFCGNVMGWYRQAPGKERELVAAITNGASTNYADSVKGRFTISRDNAKNTVYLQMNSLKPEDTAVYYCAASANNWRRRGRSYEYWGQGTQVTVSS”, the “polyreactivity (PSR sort gate)” value is recorded as “low polyreactivity”.

On to “QVQLVESGGGLVQAGGSLRLSCAASGRTFCRYPMGWYRQAPGKERELVAAISSSGITYYAESVKGRFTISRDNAKNTVYLQMNSLKPEDTEVYYCAVRWGRGFWGQGTQVTVSS”, for which the “polyreactivity (PSR sort gate)” value was “high polyreactivity”.

For “QVQLVESGGGLVQAGGSLRLSCAASGRTFDAYAMGWYRQAPGKERELVATITSGGGTYYADSVKGRFTISRDNAKNTVYLQMNSLKPEDTAVYYCKKRYVVSRKYDYWGQGTQVTVSS”, the “polyreactivity (PSR sort gate)” value is listed as “low polyreactivity”.

For the sequence “QVQLVESGGGLVQAGGSLRLSCAASGRTFDDYAMGWYIQAPGKERELVAGIRWSVGNTDYADSVKGRFTISRDNAKNTVYLQMNSLKPEDTAVYYCNARPFLTVLYLFYGNNYDYWGQGTQVTVSS”, the “polyreactivity (PSR sort gate)” value is given as “low polyreactivity”.

As to “QVQLVESGGGLVQAGGSLRLSCAASGRTFDEYAMGWYRQAPGKERELVDAINSSGNTYYADSVKGRFTISRDNAKNTVYLQMNSLKPEDTAVYYCAVRSYNTIYDDMDYWGQGTQVTVSS”, the “polyreactivity (PSR sort gate)” value is on record as “low polyreactivity”.

As for “QVQLVESGGGLVQAGGSLRLSCAASGRTFDHNAMGWYRQAPGKERELVAAITSRGGSTYYADSVKGRFTISRDNAKNTVYLQMNSLKPEDTAVYYCNRYKSSSYIRGDYWGQGTQVTVSS”, the “polyreactivity (PSR sort gate)” value was “high polyreactivity”.

With “QVQLVESGGGLVQAGGSLRLSCAASGRTFDIYAMGWYRQAHGKERELVAAISSGGSTYYADSVKGRFTISRDNAKNTVYLQMNSLKPEDTAVYYCAVRWYDQVSRRGIGYYWGQGTQVTVSS”, the “polyreactivity (PSR sort gate)” value is given as “low polyreactivity”.

Turning to “QVQLVESGGGLVQAGGSLRLSCAASGRTFDIYAMGWYRQAPGKERELVAAISSGGSTYYADSVKGRFTISRDNAKNTVYLQMNSLKPEDTAVYYCAVRWYDQVSRRGIGYYWGQGTQVTVSS”, the “polyreactivity (PSR sort gate)” value is “low polyreactivity”.
